Experimental data: the nanobody polyreactivity screen of Harvey et al. (2022)

Assay: yeast display, Sf9 membrane polyspecificity reagent, FACS + sequencing; frameworks hold sequencing errors
Method in brief: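 Galactose-induced (36–48 hours) yeast carrying a synthetic nanobody display library were exposed to 10% biotinylated, detergent-solubilized Sf9 membrane reagent at 4 °C for 1 hour. FACS followed streptavidin microbead enrichment, using low and high (top ~1%) gates for expression (anti-HA) and reagent binding (streptavidin). Colony PCR, MiSeq 2 × 250 sequencing and CDR-length filtering followed. Labels for polyreactivity reflect the gate of origin.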

Sequence	polyreactivity (PSR sort gate)
QVQLVESGGGLVQAGGSLRLSCAASGNIFDRYVMGWYRQAPVKERELVAAISVSGGSTYYADSVKGRFTISRDNEKNSVYLQMNCLKPEDTAVYYCAAHSRLINWYDYWGQGTQVTVSS	high polyreactivity
QVQLVESGGGLVQAGGSLRLRCAASGRIFRSYAMGWYRQAPGKEWEMVAAITSGTRTNYADSVKGRCTISRDNAKNTVYLQMNSLKPEDTAVSYCAARGSGFPPYRTRNYWGQGTQVTVSS	high polyreactivity
QDQLVESGGGLVQAGGSLRLSCAASGSIFSSNAMGWYRQAPGKERELVAAINKSGGRTYYADSVKGRFTISRDNAKNTVYLQMNSLKPEDTAVYYCNKYGLASGLDYWGQGTQVTVSS	high polyreactivity
QVHLVESGGGLVKAGGSLRLSCAASGITFGSYAMGWYRQAPGKERELVAAIDTSGDDTYYADSVKGRFTISRDNAKNTVYLQMNSLKPEDTAVYYCAADFPSAEVDYWGQGTQVTVSS	low polyreactivity
QVQLVESGGGLVQAGGSLRLSCAASGRIFWGYDMGSYRQAPGKQTEFVAAISSGGGRTYYADSVKGRFTISRDNAKNPVYLPMNSLKPEDTAVYYCNAELNWYYYIHLDYWGQGTQVTVSS	low polyreactivity
QVQLVESGGGLVQAGGSLRLSCAASGFTFSRNDMGWYRQAPGKERELLASITTSGGGTYYADSVKGRFTISRDNAKNTVYLQMNSLKPEDTAVYYCAKDWFPWAGYYDFGYWGQGTQVTVSS	low polyreactivity
QVQLVESGGGLVQAGGSLRLSCAASGLIFYFYAMGWYRQAPGKERELVAGITNVGSTNYADSVKGRFTISRDNAKNTVYLQMNSLKPEDTAVYYCAAQYYTVRSTYDYWGQGTQVTVSS	high polyreactivity
QVQLVESGGGLVQAGGRLRLSCAASGSILGDNAMGWYRQAPGKERELVAAISYRGGSTYADSVKGRFTISRDNATNTVYLQKNSLKPDDTAVYYCNKTDIDDSQYREYEYWGQGTQVTVSS	low polyreactivity
QVQLVESGGGLVQAGGSLRLSCAASGSNFQVYAMGWYRQAPGKERELVATIRRTGGSTYYADSVKGRFTISRDNAKNTVYLQMNSLKPEDTAVYYCAARTYGGYVLRLDYWGQGTQVTVSS	high polyreactivity
HVKLQESCGGLVPAGGSLRLSSAASATISYARNMASYLQAPGTERELVAAIDRGASTYYADSVKGLFTISRDNAKNTVYLQIYSLKPEDTAVYYCAAEYHDRWEDRYWGQGTQGTVSS	high polyreactivity
QVQLVESGGGLVQAGGSLRLSCAASGFIFKRYSMGWYRQAPGKERELVAAITSGGSTHYADSVKGRFTISRDNAKNTVYLQMNSLKPEDTAVYYCATRRYKWGVRYDYWGQGTQVTVSS	high polyreactivity
QVQLVESGGGLVQAGGSLRLSCAASGLTFYVYAMGWYRQAPGKERELVAAISSGGRTYYADSVKGRFTISRDNAKNTVYLQMNSLKPEDTAVYYCAAVRHRNYWGQGTQVTVSS	high polyreactivity
QVQLVESGGGLVQAGGSLRLSCAASGITFWYYAMGWYRQAPGKERELVAVISRGGSTYYADSVKGRFTISRDNAKNTVYLQMNSLKPEDTAVYYCAADVSVSGYYYWGQGTQVTVSS	high polyreactivity
QVQLVESGGGLVQAGGSLRLSCAASGNIFDIYAMGRYRQAPGKERELVAAISSGGSTYYADSVKGRFTISRDNAKNTVYLQMNSLKPEDTAVYYCAESRVGYYRYEYWGQGTQVTVSS	low polyreactivity
QVQLLGSGGGLVQACGSLRLSCSASGSISHYIFMGWYRQAPAKEREFVAGIGYGGTTNYADSVKGRFTISRDNAKNTVYLQMNSLKPEDTAMYYCAAREATAFYLYYCGQGTQVTVSS	low polyreactivity
QVQHVESGGGLVQAGGSLRLSCAASGYTFTINTMGWYRQAPGKERELVAAITWRGGSTYYADSVKGRFTISRDNAKNTVYLQMNSLKPEDSAVYYCNKDYYITTTTFDYWGQGTQVTVSS	low polyreactivity
QVQLVESGGGLVQAGGSLRLSCAASGYTFKYYAMAWYRQAPGKERELVAAITRSGGGTYYADSVKGRFTISRDNAKNTVYLQMNSLKPEDTAVYYCKAVLSSHGTDAGSYSYDYWGQGTQVTVSS	high polyreactivity
QVQLVESGGCLVQAGGSLRLSCAASGSTFDINAMGWYRQAPGKESELVASITFSGGSTYYADSVKGRFTISRDNAKNTVYLQMNSLKPEDTAVYYCAADSSGEYPGGYWGQGTQVTVTS	low polyreactivity
QVQLVESGGGLVQAGGSLRLSCAASGSNYTYYAMGWYRQAPGKERQLVAAIRSSGSTYYADSVKGRFTISRDNAKNTVYLQMNSLKPEDTAVYYCAAKARRLNASSYDYWGQGTQVTVSS	high polyreactivity
QVQLVESGGGLVQAGGSLRLSCAASGRIFGVNVMGWYRQAPGKERELVAGINSSGGSTYYADSVKGRFTISRDNAKNTVYLQMNSLKPEDTAVYYCDVRSIWRYGYWGQGTQVTVSS	high polyreactivity
QVQLVESGGGLVQAGGSLRLSCAASGSTFAYNAMGWYRQAPGKERELVARISSSGDITYYADSVKGRFTISRDNAKNTVYLQMNSLKPEDTAVYYCAKRYLTRYKGYYYWGQGTQVTVSS	high polyreactivity
QVQLVESGGGLVQAGGSLSLSCAASGFIFLASAMGWYRQAPGKERELVAAISSGSSTSYADSLKGRFTISRDNAKNTVYLQMNSLKPEDTAVYYCNAVPSFANLTWESYDYWGQGTQVTVSS	low polyreactivity

Sequence	polyreactivity (PSR sort gate)
QVQLVESGGGIVQAGGSLRLSCAASGLTFRRNAMGWSRQAPGKERELVAAISSGGVRTYYADSVKGRFTISRDNAKNTVYLQMNSLKPEDTAVYYCAKDDLLVVRNVWFDYWGQGTQVTVSS	low polyreactivity
QVQLVESGGGLVQAGGSLRLSCAASGFIFYQYTMGWYRQAPGKERELVAAISSGGSTYYADSVKGRFTISRDNAKNTVYLQMNSLKPEDTAVYYCAAVAYGNWYRYYYWGQGTQVTVSS	high polyreactivity
QVQLVESGGGLVQAGGSLRLSCAASGSIFTTYTMGWYRQAPGKERELVAAITTSSGSTYYADSVKGRFTISRDNAKNTVYLQMNSLKPEDTAVYSCNATYSAAVDYWGQGTQVTVSS	low polyreactivity
QVQLVESGGGLVQAGGSLRLSCAASGIILQKYTMGWYRQAPGKERELVAASTRSGGSTYYADSVKGRFTISRDNAKNTVYLQMNSLKPEDTAVYYCYGYEYWGQGTQVTVSS	high polyreactivity
QVQLVESGGGLVQAGGSLRLSCAASGLILHINTMGWYRQAPGKERELVAAISWSGDSTYYSDSVKGRFTISRDNAKNTVYLQKNSLKPDDSAVYYGAADYWYFYTPYSYEYGYWGQGTQVTVSS	high polyreactivity
QVQLVESGGGLVQAGGSLRISCAASGITFVPNAMGWYRQAPGKERELVAAITGNGGRTYYADSVKGRFTISRDNAKNTVYLQMNSLKPEDTAVYYCNARKLYWAYTLRKYDYWGQGTQVTVSS	high polyreactivity
QVQLVESGGGLVQAGGSLRLSCAASGRIFPFNAMGCYRQAPGKEREFVAAIRLSGTRTYYADSVKGRFTISRDNAKNTVYLQINSLKPDDTAVYYCAAKYSGHYYNYDYWGQGTQVTVSS	high polyreactivity
QVQLVESGGGLVQAGGSLRLSCAASGSTFQFYAMGWYRQAPGKERELVAVITSGDDTNYADSVKGRFTISRDNAKNTVYLQMNSLKPEDTAVYYCDVDYILVYTRVRSYWFDYWGQGTQVTVSS	low polyreactivity
QVQLEESGGGLVQAGGSLRLSCAASGLTFRIYAMGWYRQAPGKERELVATISTRGGSTYYADSVKGRFTISRDNPKNTVYLQMNSLQPEDTAVYYCAASLGWFSGSLYNYWGQGTQVTVSS	high polyreactivity
QDQLVESGGGLVQAGGSLRLSCAASVFTFRYYAMGWYRQAPGKEREFVATISWSGGSTYYADSVKGRFTISRDNAKNTVYLQMNSLKPEDTAVYYCAAGRVGTTTLEFYYCGQGTQVTVSS	high polyreactivity
QVQLVESGGGLVQAGGSLRLSCAASGSILDHYAMGWYRQAPGKEREFVAAISIRGGSTYYADSVKGRFTISRDNAKNTVYLQMNSLKPEDTAVYYCNALSNYVYRRNDYWGQGTQVTVSS	low polyreactivity
QVQLVESGGGLVQAGGSLRLSCAASGRTFFQYAMGWYRQPPGKARELVAAIRWSDSTYYADSVKGRFTISRDNAKNTVYLQMNSLKPADTAVYYCAAPRVSQYSTKKYDYWGQGTQVTVSS	low polyreactivity
QVQLVESGGGLVQAGGSLRLSCAASGSTFGPNAMGWYRQAPGKERELVAAIRSNGGRTYYADSVKGRFTISRDNAKNTVYLQMNSLKPEDTAVYYCAAPHYPYDTPYGYWGQGTQVTVSS	low polyreactivity
QVQLVESGGGLVQAGGSLRLSCAASGSTFRYYVMGWYRTAPGKERDLVAVISGSGGYTYYADSVKGRFTISRDNAKNTVYLQMNSLKPEDTAVYYCAAARKFIPGRGRTYDSWGQGTQVTVSS	high polyreactivity
QVQLVESGGGLVQAGGSLRLSCAASGYTFKSYFTGWYRQAPAKERELVAAITSIGGSTYYADSVKGRFTISRDNAKNTVYFLMNSVKPEDTEVYYCAKRRRGYAFSSDYWGPGTQVTVSS	high polyreactivity
QVQLVESGGGLVQAGGSLRLSCGASGRTFRPYAMGWYRQEPGKERELVAAITGGTRTYYADSVKGRFTISRDNAKNTVYLQMNSLKAEDTAVYYCAVGWAGRYDYWGQGTQVTVSS	low polyreactivity
QVQLVESGGGLVQAGGSLRLSCAASGFTFRRNAMGWYRQAPGTERELVAAINVRDGSTYYADSVKGRFTISRDNAKNTVYVQMNSLKPEDTAVYYCAAEFFQGYYWYYYWGQGTQVTVSS	high polyreactivity
QVQLVESGGGLVQAGGSLRLSCAASGSIFRFYTMGWYRQAPGKERELVAAIRYRVTSTYYADSVKGRFTMSRDNAKNTVYLQMNSLTPEDTAVYYCAVRRAKRRSQGVSYASYAGNYNYWGLGTQVTVSS	high polyreactivity
QVQLVESGGGLVQAGGSLRLSCAASGYTFLYYAMGWYRQAPGKERELVAAISSDGTTNYADSVKGRFTISRDNAKNTVYLQMNSLKPQVTAVYYCAADVFNWGYYYWGQGTQVTVSS	low polyreactivity
QVQLVESGGGLVQAGGSLRLSCAASGSTFLVYAMGWYRPAPGKERELVAAITQIDGSTYNADSVKGRFTISRDNSKNTVYLQRHSLKPEDTAVYYCAARYFWTYEYDYWGQGTQVTVSS	low polyreactivity
QVQLVESGAGLVQAGRSLRLSCASSGITIKRYAMGWYSQAPGKESELVAAINFGAGNTYYADSVKGRFTISRDNAKNPVYLQMNSLKPEDSAVYYCATTARHRYGEYYYWGLGTQVTVSS	high polyreactivity
